Measured values published in publication PMC8372317, “Discovering protein–protein interaction stabilisers by native mass spectrometry†” (Chemical Science, 2021).
Non-standard residues stand in square brackets, D forms with d. pT = C[C@@H](OP(=O)(O)O)[C@H](N)C(=O)O

Target: T1, 14-3-3σ (UniProt P31947 1-248, partial β-mercaptoethanol capping of Cys38 (+76 Da adduct))
T1 construct: 14-3-3σ (14-3-3 protein sigma); The His-tag is TEV protease cleavable; Observed predominantly as a dimer by native MS; also called recombinant 14-3-3σ; receptor (R)
T1 sequence (looked up): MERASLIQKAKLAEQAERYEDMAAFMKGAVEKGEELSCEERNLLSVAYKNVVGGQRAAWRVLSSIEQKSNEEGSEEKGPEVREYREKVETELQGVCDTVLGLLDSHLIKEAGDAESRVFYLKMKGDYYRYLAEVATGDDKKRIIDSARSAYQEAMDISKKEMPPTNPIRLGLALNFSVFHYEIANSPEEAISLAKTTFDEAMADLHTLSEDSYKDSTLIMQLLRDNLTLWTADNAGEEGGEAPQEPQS
Assay: native MS; 14-3-3σ 5 μM (monomer) with 25 μM phosphopeptide, no ligand (R:P:L 1:5:0); 50 mM ammonium acetate pH 6.8, 0.25% DMSO
Conditions: both partners purified

B1: ERα(581–595) phosphopeptide (peptide)
peptide: Ac-KYYITGEAEGFPA[pT]V-OH
notes: estrogen receptor ERα, C-terminal fragment, residues 581-595; also called C-terminal fragment of estrogen receptor ERα; source: synthetic peptide, bought: Synpeptide Ltd (>95% purity)
stoichiometry N: 2 peptide per 14-3-3σ dimer
